Reference: patent publication US20160120951A1 (ZEALAND PHARMA A S, published 2016)
Numbered stars: 1 amine (or outer) side, 2 acyl side, 3 side chain; on linkers, the order of the positions; unused ones are H or OH. Bridge positions count the residues as written; N and C are the ends. Square brackets hold non-standard residues; d marks the D form. Side chains are listed from the residue outwards. Ends that are not written are not given here. * marks the point of attachment. isoGlu = used interchangeably with γ-Glu; γGlu = O=C(O)[C@H](CCC(=O)[*:2])N[*:1]; Palmitoyl = CCCCCCCCCCCCCCCC(=O)*; Aib = CC(C)(N)C(=O)O

B1: Compound 43 (peptide)
peptide: H-H[Aib]QGTFTSDYSKYLDSK([isoGlu-Palmitoyl])AAHDFVEWLLEA-NH2
B2: Compound 42 (peptide)
peptide: H-H[Aib]QGTFTSDYSKYLDSK([isoGlu-Palmitoyl])AAEDFVEWLLSA-NH2
B3: Compound 41 (peptide)
peptide: H[Aib]QGTFTSDYSKYLDSK([isoGlu-Palmitoyl])AAHEFVEWLLSA-NH2
B4: Compound 40 (peptide)
peptide: H-H[Aib]QGTFTSDYSKYLDEK([isoGlu-Palmitoyl])AAHDFVEWLLSA-NH2
B5: Compound 14 (peptide)
peptide: HXQGTFTSDYSKYLDSKAAHDFVEWLLSA
modifications: Aib at position 2; K(Dodecanoyl-γ-Glu) at position 17; C-terminal amide (NH2)
B6: Compound 10 (peptide)
peptide: H-H[Aib]QGTFTSDYSKYLDSKAAK([γGlu-Palmitoyl])DFVAWLLRA-NH2
SMILES: CCCCCCCCCCCCCCCC(=O)N[C@@H](CCC(=O)NCCCC[C@H](NC(=O)[C@H](C)NC(=O)[C@H](C)NC(=O)[C@H](CCCCN)NC(=O)[C@H](CO)NC(=O)[C@H](CC(=O)O)NC(=O)[C@H](CC(C)C)NC(=O)[C@H](Cc1ccc(O)cc1)NC(=O)[C@H](CCCCN)NC(=O)[C@H](CO)NC(=O)[C@H](Cc1ccc(O)cc1)NC(=O)[C@H](CC(=O)O)NC(=O)[C@H](CO)NC(=O)[C@@H](NC(=O)[C@H](Cc1ccccc1)NC(=O)[C@@H](NC(=O)CNC(=O)[C@H](CCC(N)=O)NC(=O)C(C)(C)NC(=O)[C@@H](N)Cc1c[nH]cn1)[C@@H](C)O)[C@@H](C)O)C(=O)N[C@@H](CC(=O)O)C(=O)N[C@@H](Cc1ccccc1)C(=O)N[C@H](C(=O)N[C@@H](C)C(=O)N[C@@H](Cc1c[nH]c2ccccc12)C(=O)N[C@@H](CC(C)C)C(=O)N[C@@H](CC(C)C)C(=O)N[C@@H](CCCNC(=N)N)C(=O)N[C@@H](C)C(N)=O)C(C)C)C(=O)O
B7: Compound 12 (peptide)
peptide: H-H[Aib]QGTFTSDYSKYLDSKAAHDFVEWLLK([γGlu-Palmitoyl])A-NH2
SMILES: CCCCCCCCCCCCCCCC(=O)N[C@@H](CCC(=O)NCCCC[C@H](NC(=O)[C@H](CC(C)C)NC(=O)[C@H](CC(C)C)NC(=O)[C@H](Cc1c[nH]c2ccccc12)NC(=O)[C@H](CCC(=O)O)NC(=O)[C@@H](NC(=O)[C@H](Cc1ccccc1)NC(=O)[C@H](CC(=O)O)NC(=O)[C@H](Cc1c[nH]cn1)NC(=O)[C@H](C)NC(=O)[C@H](C)NC(=O)[C@H](CCCCN)NC(=O)[C@H](CO)NC(=O)[C@H](CC(=O)O)NC(=O)[C@H](CC(C)C)NC(=O)[C@H](Cc1ccc(O)cc1)NC(=O)[C@H](CCCCN)NC(=O)[C@H](CO)NC(=O)[C@H](Cc1ccc(O)cc1)NC(=O)[C@H](CC(=O)O)NC(=O)[C@H](CO)NC(=O)[C@@H](NC(=O)[C@H](Cc1ccccc1)NC(=O)[C@@H](NC(=O)CNC(=O)[C@H](CCC(N)=O)NC(=O)C(C)(C)NC(=O)[C@@H](N)Cc1c[nH]cn1)[C@@H](C)O)[C@@H](C)O)C(C)C)C(=O)N[C@@H](C)C(N)=O)C(=O)O
B8: Compound 16 (peptide)
peptide: HXQGTFTSDYSKYLDSKAAHDFVEWLLSA
modifications: Aib at position 2; K(Hexadecanoyl-[8-Aminooctanoyl]) at position 17; C-terminal amide (NH2)
B9: Compound 7 (peptide)
peptide: HXQGTFTSDYSKYLDSKAAHDFVEWLLSA
modifications: Aib at position 2; K(Hexadecanoyl-γ-Glu) at position 17; C-terminal amide (NH2)
B10: Compound 15 (peptide)
peptide: HXQGTFTSDYSKYLDSKAAHDFVEWLLSA
modifications: Aib at position 2; K(Hexadecanoyl-[3-Aminopropanoyl]) at position 17; C-terminal amide (NH2)
B11: Compound 9 (peptide)
peptide: H-H[Aib]QGTFTSDYSKYLDSK([γGlu-Palmitoyl])AARDFVAWLLRA-NH2
SMILES: CCCCCCCCCCCCCCCC(=O)N[C@@H](CCC(=O)NCCCC[C@H](NC(=O)[C@H](CO)NC(=O)[C@H](CC(=O)O)NC(=O)[C@H](CC(C)C)NC(=O)[C@H](Cc1ccc(O)cc1)NC(=O)[C@H](CCCCN)NC(=O)[C@H](CO)NC(=O)[C@H](Cc1ccc(O)cc1)NC(=O)[C@H](CC(=O)O)NC(=O)[C@H](CO)NC(=O)[C@@H](NC(=O)[C@H](Cc1ccccc1)NC(=O)[C@@H](NC(=O)CNC(=O)[C@H](CCC(N)=O)NC(=O)C(C)(C)NC(=O)[C@@H](N)Cc1c[nH]cn1)[C@@H](C)O)[C@@H](C)O)C(=O)N[C@@H](C)C(=O)N[C@@H](C)C(=O)N[C@@H](CCCNC(=N)N)C(=O)N[C@@H](CC(=O)O)C(=O)N[C@@H](Cc1ccccc1)C(=O)N[C@H](C(=O)N[C@@H](C)C(=O)N[C@@H](Cc1c[nH]c2ccccc12)C(=O)N[C@@H](CC(C)C)C(=O)N[C@@H](CC(C)C)C(=O)N[C@@H](CCCNC(=N)N)C(=O)N[C@@H](C)C(N)=O)C(C)C)C(=O)O
B12: Compound 13 (peptide)
peptide: H[Aib]QGTFTSDYSKYLDSK([γGlu-Palmitoyl])AAHDFVEWLLKA-NH2
modifications: lactam 24-28; N-terminus assumed
SMILES: CCCCCCCCCCCCCCCC(=O)N[C@@H](CCC(=O)NCCCC[C@H](NC(=O)[C@H](CO)NC(=O)[C@H](CC(=O)O)NC(=O)[C@H](CC(C)C)NC(=O)[C@H](Cc1ccc(O)cc1)NC(=O)[C@H](CCCCN)NC(=O)[C@H](CO)NC(=O)[C@H](Cc1ccc(O)cc1)NC(=O)[C@H](CC(=O)O)NC(=O)[C@H](CO)NC(=O)[C@@H](NC(=O)[C@H](Cc1ccccc1)NC(=O)[C@@H](NC(=O)CNC(=O)[C@H](CCC(N)=O)NC(=O)C(C)(C)NC(=O)[C@@H](N)Cc1c[nH]cn1)[C@@H](C)O)[C@@H](C)O)C(=O)N[C@@H](C)C(=O)N[C@@H](C)C(=O)N[C@@H](Cc1c[nH]cn1)C(=O)N[C@@H](CC(=O)O)C(=O)N[C@@H](Cc1ccccc1)C(=O)N[C@H](C(=O)N[C@H]1CCC(=O)NCCCC[C@@H](C(=O)N[C@@H](C)C(N)=O)NC(=O)[C@H](CC(C)C)NC(=O)[C@H](CC(C)C)NC(=O)[C@H](Cc2c[nH]c3ccccc23)NC1=O)C(C)C)C(=O)O
B13: Compound 6 (peptide)
peptide: H-HSQGTFTSDYSKYLDSKAAHDFVEWLLK([γGlu-Palmitoyl])A-NH2
SMILES: CCCCCCCCCCCCCCCC(=O)N[C@@H](CCC(=O)NCCCC[C@H](NC(=O)[C@H](CC(C)C)NC(=O)[C@H](CC(C)C)NC(=O)[C@H](Cc1c[nH]c2ccccc12)NC(=O)[C@H](CCC(=O)O)NC(=O)[C@@H](NC(=O)[C@H](Cc1ccccc1)NC(=O)[C@H](CC(=O)O)NC(=O)[C@H](Cc1c[nH]cn1)NC(=O)[C@H](C)NC(=O)[C@H](C)NC(=O)[C@H](CCCCN)NC(=O)[C@H](CO)NC(=O)[C@H](CC(=O)O)NC(=O)[C@H](CC(C)C)NC(=O)[C@H](Cc1ccc(O)cc1)NC(=O)[C@H](CCCCN)NC(=O)[C@H](CO)NC(=O)[C@H](Cc1ccc(O)cc1)NC(=O)[C@H](CC(=O)O)NC(=O)[C@H](CO)NC(=O)[C@@H](NC(=O)[C@H](Cc1ccccc1)NC(=O)[C@@H](NC(=O)CNC(=O)[C@H](CCC(N)=O)NC(=O)[C@H](CO)NC(=O)[C@@H](N)Cc1c[nH]cn1)[C@@H](C)O)[C@@H](C)O)C(C)C)C(=O)N[C@@H](C)C(N)=O)C(=O)O
B14: Compound 5 (peptide)
peptide: H-HSQGTFTSDYSKYLDSKAAHDFVEWLK([γGlu-Palmitoyl])RA-NH2
SMILES: CCCCCCCCCCCCCCCC(=O)N[C@@H](CCC(=O)NCCCC[C@H](NC(=O)[C@H](CC(C)C)NC(=O)[C@H](Cc1c[nH]c2ccccc12)NC(=O)[C@H](CCC(=O)O)NC(=O)[C@@H](NC(=O)[C@H](Cc1ccccc1)NC(=O)[C@H](CC(=O)O)NC(=O)[C@H](Cc1c[nH]cn1)NC(=O)[C@H](C)NC(=O)[C@H](C)NC(=O)[C@H](CCCCN)NC(=O)[C@H](CO)NC(=O)[C@H](CC(=O)O)NC(=O)[C@H](CC(C)C)NC(=O)[C@H](Cc1ccc(O)cc1)NC(=O)[C@H](CCCCN)NC(=O)[C@H](CO)NC(=O)[C@H](Cc1ccc(O)cc1)NC(=O)[C@H](CC(=O)O)NC(=O)[C@H](CO)NC(=O)[C@@H](NC(=O)[C@H](Cc1ccccc1)NC(=O)[C@@H](NC(=O)CNC(=O)[C@H](CCC(N)=O)NC(=O)[C@H](CO)NC(=O)[C@@H](N)Cc1c[nH]cn1)[C@@H](C)O)[C@@H](C)O)C(C)C)C(=O)N[C@@H](CCCNC(=N)N)C(=O)N[C@@H](C)C(N)=O)C(=O)O

Target: T1, human glucagon-like peptide 1 receptor (GLP-1R) (human, UniProt P43220 24-463)
T1 sequence (P43220 24-463): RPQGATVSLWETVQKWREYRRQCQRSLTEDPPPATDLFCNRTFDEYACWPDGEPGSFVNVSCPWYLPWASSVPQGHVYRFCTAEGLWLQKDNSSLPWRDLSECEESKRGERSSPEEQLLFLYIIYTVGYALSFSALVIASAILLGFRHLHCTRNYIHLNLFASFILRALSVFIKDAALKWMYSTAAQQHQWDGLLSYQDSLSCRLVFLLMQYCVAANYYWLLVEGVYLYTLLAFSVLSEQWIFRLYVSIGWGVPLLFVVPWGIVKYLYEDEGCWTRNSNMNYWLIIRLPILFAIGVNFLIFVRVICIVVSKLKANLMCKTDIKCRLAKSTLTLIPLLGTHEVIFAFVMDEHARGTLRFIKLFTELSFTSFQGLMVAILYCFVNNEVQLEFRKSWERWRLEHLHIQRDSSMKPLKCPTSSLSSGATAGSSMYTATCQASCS
Test: cell-based or functional assay

In order of rising “EC50 (nM) GLP-1R, cAMP formation” value:
1. B2  0.03 nM
2. B1  0.082 nM
3. B3  0.13 nM
4. B4  0.2 nM

Target: T2, human glucagon receptor (Glucagon-R) (human, UniProt P47871 26-477)
Test: cell-based or functional assay

In order of rising “EC50 (nM) GluR, cAMP formation” value:
1. B3  0.08 nM
2. B1  0.12 nM
3. B4  0.18 nM
4. B2  0.27 nM

Target: T1, human glucagon-like peptide 1 receptor …
Test: cell-based or functional assay
Remark: another data set of the same source

In order of rising “EC50 (nM) GLP-1R, cAMP formation” value:
1. B12  0.08 nM
2. B13  0.09 nM
3. B9  0.11 nM
4. B11  0.12 nM
5. B5  0.14 nM
6. B6  0.15 nM
7. B10  0.23 nM
8. B8  0.24 nM
9. B7  0.27 nM
10. B14  0.57 nM

Target: T2, human glucagon receptor (Glucagon-R)
Test: cell-based or functional assay
Remark: another data set of the same source

In order of rising “EC50 (nM) GluR, cAMP formation” value:
1. B13  0.1 nM
2. B9  0.16 nM
3. B11  0.17 nM
4. B14  0.22 nM
5. B12  0.26 nM
6. B7  0.27 nM
7. B8  0.46 nM
8. B6  0.63 nM
9. B5  0.78 nM
10. B10  1.87 nM
